According to the supplement of paper PMC10065799, “High-throughput profiling of sequence recognition by tyrosine kinases and SH2 domains using bacterial peptide display” (eLife, 2023):

Tests used:
[1] = tested on: AncSZ; experiment: phosphorylation enrichment, bacterial display (enrichment ratio); higher = better substrate or ligand; peptides without Tyr show the background
[2] = target: EPHB1 (UniProt P54762); experiment: as above
[3] = target: EPHB2 (UniProt P29323); experiment: as above
[4] = target: FGFR1 (UniProt P11362); experiment: as above
[5] = target: FGFR3 (UniProt P22607); experiment: as above
Sequence of FGFR3 (P22607 whole entry, looked up): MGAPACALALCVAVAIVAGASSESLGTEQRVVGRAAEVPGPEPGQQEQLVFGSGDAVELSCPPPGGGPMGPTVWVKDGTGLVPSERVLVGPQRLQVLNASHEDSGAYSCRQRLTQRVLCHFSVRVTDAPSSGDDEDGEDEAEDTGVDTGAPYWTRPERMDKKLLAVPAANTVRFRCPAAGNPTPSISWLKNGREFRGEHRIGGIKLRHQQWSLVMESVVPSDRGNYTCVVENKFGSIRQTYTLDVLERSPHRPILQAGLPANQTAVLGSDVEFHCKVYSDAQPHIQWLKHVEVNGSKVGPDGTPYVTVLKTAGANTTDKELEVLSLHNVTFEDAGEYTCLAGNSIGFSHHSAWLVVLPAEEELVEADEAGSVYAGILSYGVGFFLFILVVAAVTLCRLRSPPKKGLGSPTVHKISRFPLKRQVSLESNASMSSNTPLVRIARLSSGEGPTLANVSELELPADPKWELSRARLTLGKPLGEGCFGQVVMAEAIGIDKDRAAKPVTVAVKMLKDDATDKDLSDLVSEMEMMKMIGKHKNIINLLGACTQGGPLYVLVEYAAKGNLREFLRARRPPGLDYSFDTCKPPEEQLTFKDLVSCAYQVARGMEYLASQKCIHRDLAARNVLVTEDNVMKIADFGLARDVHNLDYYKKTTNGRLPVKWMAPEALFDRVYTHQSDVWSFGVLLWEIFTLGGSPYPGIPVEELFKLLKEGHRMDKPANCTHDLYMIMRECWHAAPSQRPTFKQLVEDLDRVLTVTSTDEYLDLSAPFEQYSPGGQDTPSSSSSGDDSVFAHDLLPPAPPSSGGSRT

[6] = tested on: Fer (mouse); experiment: as above
[7] = target: Fes (UniProt P07332); experiment: as above
Sequence of Fes (P07332 whole entry, looked up): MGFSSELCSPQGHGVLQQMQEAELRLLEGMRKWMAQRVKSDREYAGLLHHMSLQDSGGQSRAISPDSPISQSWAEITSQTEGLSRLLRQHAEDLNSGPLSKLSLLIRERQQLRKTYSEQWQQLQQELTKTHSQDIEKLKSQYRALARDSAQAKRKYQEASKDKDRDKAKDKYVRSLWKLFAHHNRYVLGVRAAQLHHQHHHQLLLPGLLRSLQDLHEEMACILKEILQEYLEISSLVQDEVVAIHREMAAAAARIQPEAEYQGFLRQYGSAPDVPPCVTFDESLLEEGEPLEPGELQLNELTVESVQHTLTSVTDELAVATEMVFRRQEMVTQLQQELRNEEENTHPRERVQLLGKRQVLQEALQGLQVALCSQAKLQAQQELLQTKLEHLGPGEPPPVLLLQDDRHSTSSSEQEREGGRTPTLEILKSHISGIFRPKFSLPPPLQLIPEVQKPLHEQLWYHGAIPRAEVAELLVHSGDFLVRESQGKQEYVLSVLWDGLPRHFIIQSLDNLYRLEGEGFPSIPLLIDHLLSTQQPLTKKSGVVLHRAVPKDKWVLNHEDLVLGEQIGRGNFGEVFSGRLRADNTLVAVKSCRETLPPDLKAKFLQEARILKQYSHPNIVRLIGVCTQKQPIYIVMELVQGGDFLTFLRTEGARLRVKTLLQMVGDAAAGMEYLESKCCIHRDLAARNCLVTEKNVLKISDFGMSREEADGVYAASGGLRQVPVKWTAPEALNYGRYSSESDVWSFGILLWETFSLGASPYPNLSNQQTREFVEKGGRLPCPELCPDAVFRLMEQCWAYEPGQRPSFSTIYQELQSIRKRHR

[8] = target: Fyn (UniProt P06241); experiment: as above
Sequence of Fyn (P06241 whole entry, looked up): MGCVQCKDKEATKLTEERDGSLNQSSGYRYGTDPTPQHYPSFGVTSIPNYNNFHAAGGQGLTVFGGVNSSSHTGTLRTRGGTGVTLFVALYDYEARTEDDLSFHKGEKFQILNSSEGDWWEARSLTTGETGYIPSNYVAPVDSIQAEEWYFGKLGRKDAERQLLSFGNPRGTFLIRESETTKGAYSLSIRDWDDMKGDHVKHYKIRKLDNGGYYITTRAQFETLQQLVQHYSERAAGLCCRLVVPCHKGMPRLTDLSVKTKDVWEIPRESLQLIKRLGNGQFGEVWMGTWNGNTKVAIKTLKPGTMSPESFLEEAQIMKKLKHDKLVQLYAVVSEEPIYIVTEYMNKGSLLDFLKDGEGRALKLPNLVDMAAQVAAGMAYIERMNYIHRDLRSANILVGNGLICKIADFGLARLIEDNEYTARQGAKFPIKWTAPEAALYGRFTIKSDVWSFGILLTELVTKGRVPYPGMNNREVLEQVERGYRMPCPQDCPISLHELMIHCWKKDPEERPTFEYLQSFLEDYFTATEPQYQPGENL

[9] = target: Hck (UniProt P08631); experiment: as above
Sequence of Hck (P08631 whole entry, looked up): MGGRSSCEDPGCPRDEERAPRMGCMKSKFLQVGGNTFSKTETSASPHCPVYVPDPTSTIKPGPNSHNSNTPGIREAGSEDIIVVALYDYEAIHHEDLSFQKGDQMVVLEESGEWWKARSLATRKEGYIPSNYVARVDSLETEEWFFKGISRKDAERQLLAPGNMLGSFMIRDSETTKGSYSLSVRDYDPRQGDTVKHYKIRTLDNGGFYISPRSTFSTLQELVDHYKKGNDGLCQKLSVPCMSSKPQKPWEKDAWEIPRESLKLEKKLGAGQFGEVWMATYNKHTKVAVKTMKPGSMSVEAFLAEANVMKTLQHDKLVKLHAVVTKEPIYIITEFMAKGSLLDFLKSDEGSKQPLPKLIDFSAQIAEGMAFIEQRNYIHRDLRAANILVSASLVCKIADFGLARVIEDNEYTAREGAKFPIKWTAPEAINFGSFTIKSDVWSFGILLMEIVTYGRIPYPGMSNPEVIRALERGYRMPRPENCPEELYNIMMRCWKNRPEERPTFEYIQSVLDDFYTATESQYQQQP

[10] = target: Jak2 (UniProt O60674); experiment: as above
[11] = target: MERTK (UniProt Q12866); experiment: as above
[12] = tested on: c-Abl (mouse); experiment: as above
[13] = tested on: c-Src; experiment: as above
[14] = target: Grb2 SH2 (UniProt P62993); experiment: SH2 binding enrichment of the phosphorylated peptide, bacterial display (enrichment ratio); higher = better substrate or ligand; peptides without Tyr show the background
Sequence of Grb2 SH2 (P62993 whole entry, looked up): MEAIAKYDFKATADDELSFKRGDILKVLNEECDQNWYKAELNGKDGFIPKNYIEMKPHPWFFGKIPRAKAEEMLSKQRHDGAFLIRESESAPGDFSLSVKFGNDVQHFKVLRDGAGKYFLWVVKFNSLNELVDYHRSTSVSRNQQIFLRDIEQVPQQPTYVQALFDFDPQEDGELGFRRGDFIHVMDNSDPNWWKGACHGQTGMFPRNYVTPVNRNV

[15] = target: SHP2-C SH2; experiment: as above
[16] = target: c-Src SH2; experiment: as above
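Throughout, for SH2 binding enrichment of the phosphorylated peptide, bacterial display: peptide library displayed on the E. coli surface as eCPX fusions, selected cells deep-sequenced, score is each peptide's frequency after selection divided by its frequency in the input.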
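Throughout, for phosphorylation enrichment, bacterial display: 11-residue human phosphosite peptides and single-mutation variants displayed on the E. coli surface, counted by deep sequencing, each peptide's frequency after selection divided by its frequency in the unselected input library; frequency after pTyr selection over input frequency; kinase dosed for 20-30% of maximal phosphorylation in three min.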

Sequence of EPHB1 (P54762 whole entry, looked up): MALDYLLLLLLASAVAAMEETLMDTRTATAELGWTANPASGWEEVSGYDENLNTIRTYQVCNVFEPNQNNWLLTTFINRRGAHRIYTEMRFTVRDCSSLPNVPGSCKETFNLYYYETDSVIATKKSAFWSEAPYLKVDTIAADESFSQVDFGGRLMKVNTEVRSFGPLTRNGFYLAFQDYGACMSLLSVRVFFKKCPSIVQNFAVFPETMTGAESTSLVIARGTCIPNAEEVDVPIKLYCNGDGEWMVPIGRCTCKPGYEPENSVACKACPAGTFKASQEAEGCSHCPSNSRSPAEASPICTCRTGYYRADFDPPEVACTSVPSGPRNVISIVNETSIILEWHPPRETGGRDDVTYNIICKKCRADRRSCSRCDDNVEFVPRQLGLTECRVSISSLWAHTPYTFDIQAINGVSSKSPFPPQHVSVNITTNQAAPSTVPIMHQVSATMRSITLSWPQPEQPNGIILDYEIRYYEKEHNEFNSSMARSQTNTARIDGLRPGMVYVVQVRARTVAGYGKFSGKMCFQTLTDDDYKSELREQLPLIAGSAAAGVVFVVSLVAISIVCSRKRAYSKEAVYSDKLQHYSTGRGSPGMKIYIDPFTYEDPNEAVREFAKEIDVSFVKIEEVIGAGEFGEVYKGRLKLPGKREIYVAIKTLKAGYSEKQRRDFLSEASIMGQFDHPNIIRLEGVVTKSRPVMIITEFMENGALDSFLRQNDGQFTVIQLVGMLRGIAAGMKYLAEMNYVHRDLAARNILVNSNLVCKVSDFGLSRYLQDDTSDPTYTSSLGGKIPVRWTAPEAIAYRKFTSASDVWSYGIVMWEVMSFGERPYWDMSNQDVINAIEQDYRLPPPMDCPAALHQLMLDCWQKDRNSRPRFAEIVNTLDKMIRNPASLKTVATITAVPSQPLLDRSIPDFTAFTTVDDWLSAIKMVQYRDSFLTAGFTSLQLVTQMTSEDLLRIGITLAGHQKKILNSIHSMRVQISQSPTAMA
Sequence of EPHB2 (P29323 whole entry, looked up): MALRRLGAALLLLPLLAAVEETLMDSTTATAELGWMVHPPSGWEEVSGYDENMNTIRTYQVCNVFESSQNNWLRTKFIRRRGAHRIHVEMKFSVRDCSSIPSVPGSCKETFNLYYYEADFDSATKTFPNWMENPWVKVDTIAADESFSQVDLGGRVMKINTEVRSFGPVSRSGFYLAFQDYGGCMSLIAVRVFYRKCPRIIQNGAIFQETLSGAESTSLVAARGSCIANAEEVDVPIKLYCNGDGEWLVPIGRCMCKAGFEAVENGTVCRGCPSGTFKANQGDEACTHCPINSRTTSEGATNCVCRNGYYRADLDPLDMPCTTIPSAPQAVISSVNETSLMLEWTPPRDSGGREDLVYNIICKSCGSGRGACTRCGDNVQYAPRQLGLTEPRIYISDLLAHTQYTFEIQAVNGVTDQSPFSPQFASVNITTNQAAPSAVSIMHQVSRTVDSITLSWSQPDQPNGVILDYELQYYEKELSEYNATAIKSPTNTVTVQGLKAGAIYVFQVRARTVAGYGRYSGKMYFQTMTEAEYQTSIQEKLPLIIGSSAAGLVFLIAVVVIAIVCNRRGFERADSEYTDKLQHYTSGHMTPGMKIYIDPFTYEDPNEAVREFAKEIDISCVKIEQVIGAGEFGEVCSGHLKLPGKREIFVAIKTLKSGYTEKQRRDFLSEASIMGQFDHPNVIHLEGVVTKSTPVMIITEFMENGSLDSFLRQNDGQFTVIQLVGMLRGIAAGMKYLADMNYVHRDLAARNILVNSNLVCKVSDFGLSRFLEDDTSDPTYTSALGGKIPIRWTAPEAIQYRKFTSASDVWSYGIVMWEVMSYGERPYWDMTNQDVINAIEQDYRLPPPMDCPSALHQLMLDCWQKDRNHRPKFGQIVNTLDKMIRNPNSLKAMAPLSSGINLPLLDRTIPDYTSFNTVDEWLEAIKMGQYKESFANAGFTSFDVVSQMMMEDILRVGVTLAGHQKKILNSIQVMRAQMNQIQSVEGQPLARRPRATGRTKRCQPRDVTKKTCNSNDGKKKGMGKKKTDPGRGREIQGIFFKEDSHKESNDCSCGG

Sequence | phosphorylation enrichment [1] | phosphorylation enrichment [2] | phosphorylation enrichment [3] | phosphorylation enrichment [4] | phosphorylation enrichment [5] | phosphorylation enrichment [6] | phosphorylation enrichment [7] | phosphorylation enrichment [8] | phosphorylation enrichment [9] | phosphorylation enrichment [10] | phosphorylation enrichment [11] | phosphorylation enrichment [12] | phosphorylation enrichment [13] | SH2 binding enrichment [14] | SH2 binding enrichment [15] | SH2 binding enrichment [16]
RSSPTYRDCLQ [LARGE2_Y682] | 1.45 | 0.556 | 0.472 | 0.523 | 0.522 | 0.458 | 0.858 | 0.469 | 0.385 | 0.667 | 0.42 | 0.539 | 0.369 | 0.981 | 0.964 | 0.448
RSYSPYDYQPC [TNS1_Y796] | 1.52 | 1.81 | 2.31 | 1.27 | 1.06 | 0.894 | 0.912 | 3.66 | 1.29 | 0.789 | 3.28 | 0.668 | 3.15 | 1.2 | 0.638 | 1.26
RTVDVYFGPQM [KIRREL3_Y332_R336Q] | 1.51 | 1.04 | 0.677 | 0.824 | 0.919 | 0.71 | 1.15 | 1.45 | 1.73 | 1.25 | 0.577 | 1.53 | 1.73 | 0.838 | 0.453 | 0.304
RTVDVYFGPRM [KIRREL3_Y332] | 1.15 | 0.643 | 1.33 | 0.758 | 1.23 | 0.711 | 1.14 | 1.06 | 1.5 | 0.618 | 0.591 | 0.65 | 0.72 | 0.901 | 0.593 | 0.348
RVYRDYVLKSA [HTATIP2_Y111_D108Y] | 1.07 | 1.01 | 0.76 | 0.833 | 0.825 | 0.493 | 1.05 | 0.645 | 0.841 | 0.836 | 0.693 | 0.624 | 0.794 | 0.959 | 0.612 | 0.481
RYLYYYSYLLK [PTEN_Y178_V175L] | 1.93 | 3.51 | 1.94 | 3.1 | 2.91 | 0.676 | 1.7 | 0.58 | 1.65 | 3.29 | 5.64 | 2.23 | 1.76 | 0.878 | 1.57 | 0.966
RYVVLYDAELT [ERCC4_Y581] | 1.3 | 2.77 | 1.96 | 0.736 | 1.04 | 0.629 | 1.49 | 0.657 | 0.66 | 1.24 | 1.98 | 0.817 | 0.605 | 1.47 | 7.24 | 6.75
RYVYYYSYLLK [PTEN_Y178] | 1.74 | 2.55 | 1.64 | 4.48 | 3.85 | 1.09 | 1.82 | 1.15 | 1.99 | 2.76 | 5.99 | 1.83 | 2.48 | 1.09 | 1.39 | 0.857
SAGSSYSISGI [PAX5_Y179] | 0.53 | 0.368 | 0.347 | 0.395 | 0.438 | 0.419 | 0.516 | 0.412 | 0.386 | 0.559 | 0.426 | 0.417 | 0.457 | 0.852 | 0.535 | 0.487
SARFRYLVAEK [LDHB_Y173_M175V] | 0.698 | 0.351 | 0.486 | 0.424 | 0.425 | 0.447 | 0.635 | 0.415 | 0.458 | 0.607 | 0.327 | 0.569 | 0.449 | 0.811 | 0.615 | 0.516
SASWTYVRWFD [PTDSS1_Y274_P269S] | 1.08 | 0.835 | 0.766 | 0.677 | 0.854 | 0.487 | 1.26 | 0.501 | 0.64 | 1.22 | 0.445 | 0.905 | 0.626 | 0.997 | 0.938 | 0.638
SDGHEYIYVDR [PDGFRB_Y579_P584R] | 1.33 | 0.663 | 0.645 | 2.04 | 1.43 | 0.514 | 0.995 | 1.11 | 1.12 | 1.01 | 0.514 | 0.513 | 1.6 | 0.9 | 0.579 | 0.712
SDIEEYVHRIG [DDX3X_Y525] | 0.978 | 0.473 | 0.456 | 0.426 | 0.567 | 0.367 | 0.972 | 0.429 | 0.455 | 0.791 | 0.384 | 0.953 | 0.41 | 0.994 | 0.892 | 0.534
SDRNLYSKNLV [CFAP58_Y501] | 0.626 | 0.268 | 0.38 | 0.325 | 0.363 | 1.03 | 0.516 | 0.411 | 0.555 | 0.491 | 0.748 | 0.467 | 0.435 | 0.823 | 0.811 | 0.423
SDVSSYLEGQV [GCG_Y110_A115V] | 0.924 | 0.616 | 0.534 | 0.532 | 0.735 | 0.547 | 1.24 | 0.557 | 0.511 | 1.09 | 0.478 | 0.838 | 0.52 | 0.81 | 0.569 | 0.479
SEASGYQDNIA [DES_Y363] | 0.778 | 0.52 | 0.485 | 0.441 | 0.674 | 0.551 | 0.94 | 0.384 | 0.485 | 0.783 | 0.515 | 0.616 | 0.427 | 0.907 | 0.567 | 0.52
SEHLIYLEFKS [RASGRP1_Y215_T214I] | 1.44 | 1.58 | 1.04 | 1.61 | 1.77 | 0.69 | 1.46 | 6.74 | 5.08 | 1.2 | 0.875 | 6.39 | 5.64 | 0.801 | 0.729 | 0.499

Sequence | phosphorylation enrichment [1] | phosphorylation enrichment [2] | phosphorylation enrichment [3] | phosphorylation enrichment [4] | phosphorylation enrichment [5] | phosphorylation enrichment [6] | phosphorylation enrichment [7] | phosphorylation enrichment [8] | phosphorylation enrichment [9] | phosphorylation enrichment [10] | phosphorylation enrichment [11] | phosphorylation enrichment [12] | phosphorylation enrichment [13] | SH2 binding enrichment [14] | SH2 binding enrichment [15] | SH2 binding enrichment [16]
SEKVVYQRFTE [NCF1_Y41_R42Q] | 0.675 | 0.457 | 0.394 | 0.574 | 0.542 | 0.508 | 0.763 | 0.889 | 0.959 | 0.931 | 0.379 | 1.07 | 1.93 | 0.676 | 1.72 | 0.618
SENPKCPEVGD [TMEM43_Y233_Y233C] | 0.971 | 0.492 | 0.49 | 0.487 | 0.595 | 0.467 | 1.08 | 0.441 | 0.487 | 0.807 | 0.461 | 1.24 | 0.471 | 0.959 | 0.922 | 0.682
SFCFRYRCAAW [SUMF1_Y344_R349W_YF] | 0.933 | 0.473 | 0.465 | 0.501 | 0.613 | 0.454 | 0.829 | 0.41 | 0.442 | 0.638 | 0.449 | 0.45 | 0.363 | 2.09 | 1.58 | 1.78
SFIGQYSGKKE [L1CAM_Y1229] | 0.735 | 0.452 | 0.413 | 0.417 | 0.519 | 0.372 | 0.714 | 0.461 | 0.486 | 0.532 | 0.382 | 0.609 | 0.374 | 0.721 | 0.622 | 0.525
SFVVRYNQPRV [GRIN2D_Y736_M733V_YF] | 1.01 | 0.559 | 0.517 | 0.499 | 0.608 | 0.49 | 1.1 | 0.483 | 0.515 | 0.794 | 0.366 | 0.663 | 0.377 | 1.06 | 0.697 | 0.972
SGIFQYSIAKF [FOXL2_Y83_I84S_YF] | 0.889 | 0.555 | 0.525 | 0.64 | 0.638 | 0.467 | 0.969 | 0.478 | 0.569 | 0.756 | 0.469 | 0.573 | 0.5 | 0.947 | 1.5 | 1.11
SHNELYFEEAE [VANGL1_Y344_YF] | 1.09 | 0.568 | 0.619 | 0.68 | 1.02 | 0.693 | 1.21 | 0.67 | 0.633 | 1.23 | 0.556 | 0.671 | 0.492 | 0.941 | 0.71 | 0.46
SILAVYSKDIF [PANK2_Y400_N404I_YF] | 0.691 | 0.477 | 0.494 | 0.445 | 0.537 | 0.46 | 0.663 | 1.11 | 0.765 | 0.688 | 2.99 | 0.578 | 1.62 | 1.02 | 0.678 | 0.764
SLGKGYFDGGC [MC4R_Y35_S36Y_YF] | 0.922 | 0.452 | 0.529 | 0.434 | 0.611 | 0.35 | 0.924 | 0.377 | 0.429 | 0.889 | 0.389 | 0.842 | 0.481 | 0.838 | 0.704 | 0.555
SLGSPYGQPPC [PDLIM4_Y137_R142C] | 0.659 | 0.453 | 0.491 | 0.465 | 0.588 | 0.37 | 0.835 | 0.458 | 0.576 | 0.568 | 0.39 | 0.817 | 0.373 | 0.875 | 0.88 | 0.562
SLIDMYSEVLD [OPA1_Y268] | 1.26 | 0.621 | 0.683 | 0.633 | 0.719 | 0.535 | 1.12 | 0.575 | 0.579 | 1.1 | 0.527 | 0.569 | 0.591 | 0.839 | 0.924 | 0.778
SLLTDDSPQLQ [OTC_Y345_Y345D] | 1.14 | 0.928 | 0.548 | 0.491 | 0.764 | 0.444 | 1.29 | 0.407 | 0.481 | 1.22 | 0.538 | 0.923 | 0.453 | 0.746 | 0.49 | 0.413
SLNAVYPRAGS [OAS3_Y376] | 0.451 | 0.306 | 0.323 | 0.384 | 0.357 | 0.314 | 0.481 | 0.331 | 0.368 | 0.462 | 0.378 | 0.507 | 0.368 | 0.872 | 0.509 | 0.452
SLTCTYSPALN [TP53_Y126_V122L] | 1.56 | 0.924 | 0.882 | 0.66 | 1.21 | 0.696 | 1.81 | 0.797 | 0.818 | 1.57 | 0.522 | 1.65 | 0.804 | 0.657 | 0.453 | 0.487
SLTGAYTSGIP [POM121C_Y378] | 0.443 | 0.299 | 0.393 | 0.494 | 0.408 | 0.306 | 0.533 | 0.376 | 0.357 | 0.44 | 0.349 | 0.52 | 0.326 | 0.828 | 0.718 | 0.448
SNKELYEKFMI | 0.859 | 0.571 | 0.539 | 0.507 | 0.543 | 10.2 | 0.872 | 1.14 | 1.45 | 0.894 | 1.51 | 0.559 | 1.78 | 0.79 | 0.705 | 0.526
